# Reference: article PMC5015959, “The Binding of Plasmodium falciparum Adhesins and Erythrocyte Invasion Proteins to Aldolase Is Enhanced by Phosphorylation” (PLoS ONE, 2016)
# Where a SMILES comes first, the peptide text is derived from it. Where no end group is shown, it is not given here. [ ]: non-standard residue; d: D form. The star is where a group is joined. Biotin = O=C1N[C@H]2[C@H](CS[C@H]2CCCCC(=O)*)N1; pT = C[C@@H](OP(=O)(O)O)[C@H](N)C(=O)O; pS = N[C@@H](COP(=O)(O)O)C(=O)O
# T1: P. falciparum aldolase (P. falciparum, UniProt Q7KQL9 1-369)
# T1 construct: also called fructose 1,6-bisphosphate aldolase; parasite aldolase; source: prepared as described previously [42]
# T1 sequence (looked up): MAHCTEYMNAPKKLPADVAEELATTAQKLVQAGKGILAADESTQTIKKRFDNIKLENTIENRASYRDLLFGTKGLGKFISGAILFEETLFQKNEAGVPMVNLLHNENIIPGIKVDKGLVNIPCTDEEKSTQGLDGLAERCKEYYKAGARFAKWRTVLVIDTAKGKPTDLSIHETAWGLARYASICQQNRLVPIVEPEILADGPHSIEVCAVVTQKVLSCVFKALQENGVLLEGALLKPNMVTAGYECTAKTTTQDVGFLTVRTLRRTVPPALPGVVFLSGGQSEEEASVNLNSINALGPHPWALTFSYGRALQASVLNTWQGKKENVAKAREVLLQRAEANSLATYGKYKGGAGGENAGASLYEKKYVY
# B1: MTRAP CTD short C-terminal peptide (printed residues 479–498) (peptide)
# peptide: Biotin-ALKGKDNKAMDEEEFWALE
# notes: source: synthetic peptide; bought: Biomatik, USA
# B2: EBA140 CTD (1155–1210) (peptide)
# peptide: Biotin-RMGKSNEEYDIGESNIEATFEENNYLNKLSRIFNQEVQETNISDYSEYNYNEKNMY
# notes: also called EBA140 unmodified; source: synthetic peptide; bought: Biomatik, USA
# B3: EBA175 CTD (1445–1502) (peptide)
# peptide: Biotin-KYQSSEGVMNENNENNFLFEVTDNLDKLSNMFNQQVQETNINDFSEYHEDINDINFKK
# notes: also called EBA175 unmodified; source: synthetic peptide; bought: Biomatik, USA
# B4: EBA181 CTD (1511–1567) (peptide)
# peptide: Biotin-RKNLDDEKGFYDSNLNDSAFEYNNNKYNKLPYMFDQQINVVNSDLYSEGIYDDTTTF
# notes: also called EBA181 unmodified; source: synthetic peptide; bought: Biomatik, USA
# B5: MTRAP CTD phosphorylated at Thr-459 (peptide)
# peptide: Biotin-YFLRKEK[pT]EKVVQEETKEENFEVMFNDDALKGKDNKAMDEEEFWALE
# notes: source: phosphorylated synthetic peptide (Biomatik) or peptide phosphorylated in vitro
# B6: MTRAP CTD phosphorylated at Thr-467 (peptide)
# peptide: Biotin-YFLRKEKTEKVVQEE[pT]KEENFEVMFNDDALKGKDNKAMDEEEFWALE
# notes: as for B5
# B7: MTRAP CTD phosphorylated at Thr-459 and Thr-467 (peptide)
# peptide: Biotin-YFLRKEK[pT]EKVVQEE[pT]KEENFEVMFNDDALKGKDNKAMDEEEFWALE
# notes: as for B5
# B8: AMA1 CTD phosphorylated at Ser-610 (peptide)
# peptide: Biotin-YKRKGNAEKYDKMDEPQDYGKSNSRNDEMLDPEASFWGEEKRASHTTPVLMEKPYY
# modifications: not fully specified (residue 44)
# notes: as for B5
# B9: RH2B CTD phosphorylated at S3233 (peptide)
# peptide: Biotin-DRSNKDECDFDMCEEVNNNDHL[pS]NYADKEEIIEIVFDENEEKYF
# modifications: cysteine pairing not given here
# notes: as for B5
# B10: MTRAP full length CTD (452–498), synthetic biotinylated peptide (peptide)
# peptide: Biotin-YFLRKEKTEKVVQEETKEENFEVMFNDDALKGKDNKAMDEEEFWALE
# notes: as for B1
# B11: RH4 CTD phosphorylated at S1667 or S1674 (peptide)
# peptide: Biotin-KNSNEPHHIFNIFQKEFSEADNAHSEEKEEYLPVYFDEVEDEVEDEVEDEDENENEVENENEDFNDI
# modifications: also: one phosphate at either Ser1667 (pos 18) or Ser1674 (pos 25)
# notes: as for B5
# B12: EBA140 CTD, phosphorylated (peptide)
# peptide: Biotin-RMGKSNEEYDIGESNIEATFEENNYLNKLSRIFNQEVQETNISDYSEYNYNEKNMY
# modifications: also: phosphorylated, exact sites not determined
# notes: also called EBA140 phosphorylated; source: phosphorylated synthetic peptide (Biomatik) or peptide phosphorylated in vitro
# B13: EBA175 CTD phosphorylated at T1483 and S1489 (peptide)
# peptide: Biotin-KYQSSEGVMNENNENNFLFEVTDNLDKLSNMFNQQVQE[pT]NINDF[pS]EYHEDINDINFKK
# notes: as for B5
# B14: EBA181 CTD phosphorylated at S1523 and S1528 (peptide)
# peptide: Biotin-RKNLDDEKGFYD[pS]NLND[pS]AFEYNNNKYNKLPYMFDQQINVVNSDLYSEGIYDDTTTF
# notes: as for B5
# B15: TRAP full length CTD (530–574) (peptide)
# peptide: Biotin-YKFVVPGAATPYAGEPAPFDETLGEEDKDLDEPEQFRLPEENEWN
# notes: as for B1
# B16: AMA1 full length CTD (567–622) (peptide)
# peptide: Biotin-YKRKGNAEKYDKMDEPQDYGKSNSRNDEMLDPEASFWGEEKRASHTTPVLMEKPYY
# notes: as for B1
# B17: RH2B CTD (3211–3254) (peptide)
# peptide: Biotin-DRSNKDECDFDMCEEVNNNDHLSNYADKEEIIEIVFDENEEKYF
# modifications: cysteine pairing not given here
# notes: also called RH2B unmodified; source: synthetic peptide; bought: Biomatik, USA
# B18: RH4 CTD (1650–1716) (peptide)
# peptide: Biotin-KNSNEPHHIFNIFQKEFSEADNAHSEEKEEYLPVYFDEVEDEVEDEVEDEDENENEVENENEDFNDI
# notes: also called RH4 unmodified; source: synthetic peptide; bought: Biomatik, USA
# How the values were obtained:
# P. falciparum aldolase [1] = biological target: T2, P. falciparum aldolase (Plasmodium falciparum, UniProt Q7KQL9); experiment: biochemical; format: binding; conditions: for binding to aldolase (in words): biolayer interferometry, Octet Red; for Kd: same assay as the Kd column, symbol * = no binding
# T2 construct: made in house
# Text: CTDs of four classes of type 1 membrane protein (AMA1 and the TRAP, EBL and RH families) that are potential adhesins or host cell invasion proteins derived from apical organelles, and present in the merozoite plasma membrane during invasion, were examined for their ability to bind to aldolase using bio-layer interferometry. Streptavidin-coated biosensors were loaded with biotinylated synthetic peptides or recombinant proteins representing either the full length CTDs or shorter C-terminal sequences (Table 1) and titrated with increasing aldolase concentrations. This analysis enabled the calculation of a dissociation constant (Kd) for each pair of proteins as a measure of the strength of interaction between them.
# The effect of the CTD phosphorylation on aldolase binding was investigated using biolayer interferometry using phosphorylated synthetic peptides or peptides phosphorylated in vitro (Table 3).
# Protein interactions were analysed by biolayer interferometry using the Octet Red system (ForteBio) at 25°C in 96-well microplates, as described previously. All assays were performed in 100 mM Tris-HCl pH 8.0, according to the manufacturer’s instructions. A baseline was established over 1 min, and biotinylated samples were loaded onto streptavidin sensors for 1 min. The sensors were washed for 1 min and then incubated with aldolase at different concentrations (0.05–250 μM) for 1 min, followed by a dissociation phase over 5 min. The experiments were performed in duplicate or triplicate depending on the experiment. The data were analysed as described previously.
# [2] = biological target: RH1 full length CTD (2921–2971) (P. falciparum); experiment: BLI
# [3] = biological target: RH1 CTD phosphorylated at S2950 or T2951 (P. falciparum); experiment: BLI
# P. falciparum aldolase [4] = biological target: T1, P. falciparum aldolase; experiment: BLI; conditions: both partners purified
# P. falciparum aldolase [5] = biological target: T1, P. falciparum aldolase; experiment: BLI; conditions: both partners purified; remark: listed apart in the source
# P. falciparum aldolase [6] = biological target: T1, P. falciparum aldolase; experiment: BLI; competition: biotinylated AMA1 or RH4 CTD on streptavidin sensor, fixed aldolase (70 μM for AMA1, 20 μM for RH4) with increasing unlabelled MTRAP CTD peptide; Octet Red; duplicate; conditions: both partners purified
Molecule,Kd (P. falciparum aldolase [4]),Kd (P. falciparum aldolase [5]),further results
Biotin-KTNSGDNNSNEINEAFEPNDDVLFKEKDEIIEITFNDNDSTI [RH2A],–,–,binding to aldolase (in words) (P. falciparum aldolase [1]): did not bind at all; Kd (P. falciparum aldolase [1]): > 250 µM
Biotin-DRSNKDECDFDMCEEVNNNDHLSNYADKEEIIEIVFDENEEKYF (cysteines drawn unpaired) [RH2B],–,–,"increase in affinity for aldolase following phosphorylation (P. falciparum aldolase [1]; phosphorylated versus unmodified CTD, from Kd values of Table 3): 11 fold"
P. falciparum aldolase (from UniProt Q7KQL9 1-369) (enzyme),–,–,Kd [2]: 6.1 µM; Kd [3]: 2.5 µM
CSCC[C@H](NC(=O)[C@H](CC(C)C)NC(=O)[C@@H](NC(=O)CCCC[C@@H]1SC[C@@H]2NC(=O)N[C@@H]21)C(C)C)C(=O)N[C@@H](CCC(=O)O)C(=O)N[C@@H](CCCCN)C(=O)N1CCC[C@H]1C(=O)N[C@@H](Cc1ccc(O)cc1)C(=O)N[C@@H](Cc1ccc(O)cc1)C(=O)O [AMA1 555–562] (Biotin-VLMEKPYY-OH; C-terminus assumed),–,–,binding to aldolase (in words) (P. falciparum aldolase [1]): did not bind; Kd (P. falciparum aldolase [1]): > 250 µM
"CC[C@H](C)[C@H](NC(=O)[C@H](Cc1c[nH]cn1)NC(=O)[C@H](Cc1ccc(O)cc1)NC(=O)CCCC[C@@H]1SC[C@@H]2NC(=O)N[C@@H]21)C(=O)N[C@@H](Cc1ccccc1)C(=O)N[C@@H](Cc1ccc(O)cc1)C(=O)N[C@@H](CCCCN)C(=O)N[C@@H](CCCNC(=N)N)C(=O)N[C@@H](CCCCN)C(=O)NCC(=O)N[C@@H](C)C(=O)N[C@@H](CCC(=O)O)C(=O)N[C@@H](CCCCN)C(=O)N[C@@H](CCC(=O)O)C(=O)N[C@@H](CC(C)C)C(=O)N[C@@H](Cc1ccc(O)cc1)C(=O)N[C@@H](CCC(=O)O)C(=O)N[C@@H](CC(N)=O)C(=O)N[C@H](C(=O)N[C@@H](C)C(=O)NCC(=O)N[C@@H](CCCNC(=N)N)C(=O)N[C@@H](Cc1ccc(O)cc1)C(=O)N[C@@H](CCSC)C(=O)N[C@@H](Cc1ccc(O)cc1)C(=O)N[C@@H](CC(=O)O)C(=O)O)C(C)C [PTRAMP, reference compound] (Biotin-YHIFYKRKGAEKELYENVAGRYMYD-OH; C-terminus assumed)",–,–,binding to aldolase (in words) (P. falciparum aldolase [1]): does not bind
B1,17 µM,–,–
B2,83 µM,–,–
B3,96 µM,–,–
B4,130 µM,–,–
B5,–,3.5 µM,–
B6,–,1.9 µM,–
B7,–,0.9 µM,–
B8,–,44 µM,–
B9,–,11 µM,–
B10,13.8 µM,–,–
B11,–,2.5 µM,–
B12,–,35 µM,–
B13,–,38 µM,–
B14,–,4.7 µM,–
YFLRKEKTEKVVQEETKEENFEVMFNDDALKGKDNKAMDEEEFWALE [unlabelled competitor MTRAP CTD peptide],–,–,percent reduction of aldolase binding to RH4 CTD at a 5-fold molar excess of MTRAP to aldolase (P. falciparum aldolase [6]): 56%
B15,5 µM,–,–
B16,53 µM,–,–
B17,125 µM,–,–
B18,3.5 µM,–,–
